Laboratory results as given in IntAct's records for PubMed 22056926.

B1: Cell division protein ZapB (Escherichia coli (strain K12)), P0AF36 (parent)
chain: MTMSLEVFEKLEAKVQQAIDTITLLQMEIEELKEKNNSLSQEVQNAQHQREELERENNHLKEQQNGWQERLQALLGRMEEV
partner: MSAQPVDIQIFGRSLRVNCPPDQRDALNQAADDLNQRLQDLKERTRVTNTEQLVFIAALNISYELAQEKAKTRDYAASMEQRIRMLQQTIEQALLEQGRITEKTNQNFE

Variants of: B1
Conditions: with zapa_ecoli zapA

Effect of a mutation on the interaction, decreasing interaction strength:
MTMAAEVFEKLEAKVQQAIDTITLLQMEIEELKEKNNSLSQEVQNAQHQREELERENNHLKEQQNGWQERLQALLGRMEEV [S4A;L5A]
MTMSLEVAAKLEAKVQQAIDTITLLQMEIEELKEKNNSLSQEVQNAQHQREELERENNHLKEQQNGWQERLQALLGRMEEV [F8A;E9A]
MTMSLEVFEAAEAKVQQAIDTITLLQMEIEELKEKNNSLSQEVQNAQHQREELERENNHLKEQQNGWQERLQALLGRMEEV [K10A;L11A]
